Experiment [1] concerns the target T1, hPD-1 mIg fusion protein (human; mouse, UniProt Q15116 25-170).
T1 construct: extracellular domain; not shown: CH2-CH3 domain of mouse IgG2a heavy chain (plasmid pmIgG)
Nature of the experiment: SPR Biacore T200, hPD-1 mIg immobilised at low level, antibody as analyte; reference pembrolizumab and nivolumab. On the procedure:
Antibody binding affinity and kinetics: The affinity and kinetics of theTY101 was analyzed using the Biacore T200 instrument (GE Healthcare Life Sciences) and compared with two commercial antibodies.
For orientation: In SPR one partner is held on a chip, and binding of the other changes the refractive index at the surface.

In experiment [2] the target is T1, hPD-1 mIg fusion protein. The experiment can be described thus: SPR Biacore T100, hPD-1mIg immobilised by amine coupling, antibody as analyte. On the procedure:
Binding affinity and kinetics determination of the humanized antibodies: The binding affinity and kinetics of the humanized PD-1 mAbs interact with hPD-1 protein was assessed with Biacore T100 (GE Healthcare Life Sciences). […] Nine different concentrations were tested for each sample. Detailed binding kinetic parameters (association rate, Ka, dissociation rate, Kd, and affinity constant, KD) can be determined by full kinetic analysis.

Experiment [3] deals with T2, human PD-1 on cells (human, UniProt Q15116 25-288). Nature of the experiment: cell-based or functional assay.
The target of experiment [4] is T3, mPD-1 protein (ELISA coat) (mouse, UniProt Q02242 25-167, limits assumed).
T3 sequence (looked up): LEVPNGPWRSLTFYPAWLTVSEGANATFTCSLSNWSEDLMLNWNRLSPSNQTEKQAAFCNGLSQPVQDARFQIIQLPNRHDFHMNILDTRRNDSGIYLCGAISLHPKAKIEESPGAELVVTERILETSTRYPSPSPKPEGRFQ
The experiment can be described thus: ELISA against mPD-1 ECD-Fc protein (plate coat). As to the method:
(§1) The bindings of the antibodies to hPD-1 and the cross-reactivity to mPD-1 proteins were tested by ELISA. A serial dilution of test antibodies were added to ELISA plates pre-coated with 1 μg/ml hPD-1 or mPD-1. HRP conjugated goat anti-human IgG or goat anti-mouse IgG antibody was then added, followed by the addition of substrate Tetramethylbenzidine (TMB) and quantification with a SpectraMax Plus 384 Microplate Reader (Molecular Device, LLC., Sunnyvale, Calif.) at 450 nm wavelength.
(In general: ELISA stands for enzyme-linked immunosorbent assay.)

Experiment [5] has as its target T2, human PD-1 on cells. The experiment can be described thus: cell based RBA (flow cytometry): blocking of Biotin-hPD-L2 binding to CHOK1-hPD-1 cells. On the procedure:
(§2) The cells were then incubated with Alexa 488 labeled Streptavidin and analyzed using a FACSCanto II.

In experiment [6] the target is T4, cynomolgus monkey PD-1 on cells (cynomolgus monkey, UniProt B0LAJ3 25-288).
T4 construct: also called cPD-1; CHOK1-cPD-1
Nature of the experiment: flow cytometry on CHOK1-cPD-1 cells.

In experiment [7] the target is T5, Biotin-hPD-1 (human, UniProt Q15116 25-167, limits assumed, biotin label, site not stated). Nature of the experiment: competitive ELISA: competitive Ab 15 µg/ml with Biotin-hPD-1; coating Ab TY101-04-T3-05 1 µg/ml. On the procedure: (§3) A serial dilution of competing antibodies and Biotin-hPD-1 were added to ELISA plates pre-coated with 1 μg/ml a test antibody. HRP conjugated streptavidin was then added, followed by the addition of substrate TMB and quantification with a SpectraMax Plus 384 Microplate Reader at 450 nm wavelength.

Experiment [8] deals with T6, Human PD-1 ECD protein (human, UniProt Q15116 25-170).
T6 construct: extracellular domain; also called hPD-1; recombinant hPD-1
The experiment can be described thus: SPR, Biacore T200, hPD-1 ECD immobilised at the low level (60 RU), antibody as analyte, 1:1 fit [lower left]. On the procedure:
(§4) Human PD-1 ECD protein was immobilized on CMS sensor chip for different length of time to achieve low immobilization level (at 60 RU) in flow cell 3 and high immobilization level (960 RU) in flow cell 4. […] After signals of both the reference (flow cell 1) and the zero concentrations being subtracted from that of samples, binding kinetics was calculated using Biacore T200 evaluation software version 1.0 and a 1:1 binding model for curve fitting.

Experiment [9] has as its target T5, Biotin-hPD-1. The experiment can be described thus: competitive ELISA: competitive Ab 15 µg/ml with Biotin-hPD-1; coating Ab Pembrolizumab 1 µg/ml. As to the method: as §3
Experiment [10] deals with T6, Human PD-1 ECD protein. The experiment can be described thus: SPR, Biacore T200, hPD-1 ECD immobilised at the high level (960 RU), antibody as analyte, 1:1 fit; kd and KD printed as '*', no visible dissociation over 1500 s [lower right]. As to the method:
as §4

For experiment [11], the target named is hPD-1 protein (ELISA coat) (human, UniProt Q15116 25-167, limits assumed). The experiment can be described thus: ELISA against hPD-1 ECD-Fc protein (plate coat). As to the method:
as §1

For experiment [12], the target named is T5, Biotin-hPD-1. The experiment can be described thus: competitive ELISA: competitive Ab 15 µg/ml with Biotin-hPD-1; coating Ab TY101-4G1 1 µg/ml. As to the method:
as §3

Experiment [13] addresses T2, human PD-1 on cells. Nature of the experiment: cell based RBA (flow cytometry): blocking of Biotin-hPD-L1 binding to CHOK1-hPD-1 cells. As to the method: as §2
Experiment [14] addresses T5, Biotin-hPD-1. Nature of the experiment: competitive ELISA: competitive Ab 15 µg/ml with Biotin-hPD-1; coating Ab TY101-01-09 1 µg/ml. As to the method:
as §3

The target in experiment [15] is T2, human PD-1 on cells. The experiment can be described thus: flow cytometry on CHOK1-hPD-1 cells. For orientation: A flow cytometer gives signals particle by particle.
Experiment [16] addresses T5, Biotin-hPD-1. Nature of the experiment: competitive ELISA: competitive Ab 15 µg/ml with Biotin-hPD-1; coating Ab Nivolumab 1 µg/ml. On the procedure: as §3
For experiment [17], the target named is T2, human PD-1 on cells. Nature of the experiment: flow cytometry on CHO/hPD-1 cells, anti-mIgG-APC. On the procedure:
CHO/hPD-1 cells were incubated anti-PD-1 mAbs on ice. After incubation, the cells were washed and further incubated with anti-mIgG-APC (eBiosciences). Flow cytometry analysis was performed using a FACSVerse (BD Biosciences). […] These cells were also stained with their respective positive antibodies respectively as positive control.

A word on the Kd: it is the equilibrium constant for the complex coming apart. For orientation: koff means a measure of how fast the partners let go of each other. As usually defined, the kon is the second-order rate constant of association. The IC50 is the concentration at which inhibition is half-maximal. For orientation: EC50 means the concentration that produces a half-maximal response.

T6 sequence (Q15116 25-170): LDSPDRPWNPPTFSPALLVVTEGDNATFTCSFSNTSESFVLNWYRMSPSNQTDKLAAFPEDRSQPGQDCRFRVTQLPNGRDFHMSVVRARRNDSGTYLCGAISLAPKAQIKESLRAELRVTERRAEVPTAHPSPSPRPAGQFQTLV
T1 sequence (Q15116 25-170): as above
T4 sequence (B0LAJ3 entry or part of it limits assumed): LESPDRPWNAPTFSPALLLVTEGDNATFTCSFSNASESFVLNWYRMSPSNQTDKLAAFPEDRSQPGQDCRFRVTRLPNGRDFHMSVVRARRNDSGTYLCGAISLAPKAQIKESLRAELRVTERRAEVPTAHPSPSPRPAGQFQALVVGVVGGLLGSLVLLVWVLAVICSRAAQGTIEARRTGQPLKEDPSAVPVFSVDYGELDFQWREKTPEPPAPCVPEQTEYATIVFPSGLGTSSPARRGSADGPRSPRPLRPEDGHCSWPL
T2 sequence (Q15116 25-288): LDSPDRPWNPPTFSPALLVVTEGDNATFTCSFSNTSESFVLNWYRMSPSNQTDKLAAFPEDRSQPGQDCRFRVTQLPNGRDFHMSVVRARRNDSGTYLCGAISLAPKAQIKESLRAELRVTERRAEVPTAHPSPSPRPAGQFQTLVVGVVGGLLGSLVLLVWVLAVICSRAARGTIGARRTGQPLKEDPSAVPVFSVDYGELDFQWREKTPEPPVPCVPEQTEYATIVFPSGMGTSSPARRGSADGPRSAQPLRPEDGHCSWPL
T5 sequence (Q15116 25-167 limits assumed): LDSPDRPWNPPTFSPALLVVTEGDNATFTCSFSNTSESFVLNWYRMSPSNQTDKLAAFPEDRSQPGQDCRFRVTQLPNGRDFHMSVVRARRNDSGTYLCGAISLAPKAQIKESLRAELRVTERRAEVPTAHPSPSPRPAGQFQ
Sequence of hPD-1 protein (ELISA coat) (Q15116 25-167 limits assumed): as above

B1: Variant 3 (TY101) (antibody, V domains shown)
VH: EVQLVESGGGLVQPGGSLRLSCAASGFTFSSYTMSWVRQAPGKGLEWVSYISHGGGDTYYADSVKGRFTISRDNSKNTLYLQMNSLRAEDTAVYYCARHSGYERGYYYVMDYWGQGTLVTVSS
VL: DIQLTQSPDSLSVSLGERATINCKASESVDYYGFSFLNWFQQKPGQPPKLLIYAASNRQSGVPDRFSGSGSGTDFTLTISSLQAEDVAVYFCQQSKEVPWTFGQGTKLEIKR
notes: Humanized; VH variant a, VK variant c; Constant regions not spelled out; chimeric parent has human IgG4-S228P and human kappa; also called mutant combination 3
For B1, the “fold slower dissociation rate Kd than the two commercial antibodies” value with hPD-1 mIg fusion protein [1] stood at 10 fold. Further, in the experiment with hPD-1 mIg fusion protein [2], the Kd worked out at 0.0963 nM, the koff turned out to be 2.33e-05 s⁻¹ and the kon came to 242000 M⁻¹ s⁻¹. Further, in the experiment with human PD-1 on cells [3], the “EC50; luciferase RLU of Jurkat-PD1 cells stimulated with CHO-PD-L1 cells (PD-1/PD-L1 Blockade Bioassay)” value came to 0.224 µg/mL.

B2: TY101-04-T3-05 (antibody, V domains shown)
VH: B1 VH
VL: B1 VL
notes: also called TY101 clone TY101-04-T3-05
Turning to B2, the “Max OD450” value in experiment [4] came out at 0.92; in experiment [11] it was 3.03. In experiment [4], the binding result is on record as “no binding (tested: 100 nM)”. Also, the IC50 with human PD-1 on cells [5] is 1.52 nM; with human PD-1 on cells [13], 1.3 nM. For the same molecule, the Inhibition rate worked out at 95.3% with human PD-1 on cells [5] and 99.5% with human PD-1 on cells [13]. In addition, the results for the EC50 (in [6]; in experiment [11]; in the experiment with human PD-1 on cells [15]) were 1.19 nM, 0.14 nM and 0.87 nM, respectively. In addition, the “Max MFI” value in experiment [6] worked out at 22100; with human PD-1 on cells [15], 23900. For the same molecule, the “Inhibition (%)” value with Biotin-hPD-1 [7] was determined as 95%; with Biotin-hPD-1 [9], 94%; in the experiment with Biotin-hPD-1 [12], 95%; in the experiment with Biotin-hPD-1 [14] it was 94%; with Biotin-hPD-1 [16], 94%. The same molecule gave a dissociation constant (Kd) with Human PD-1 ECD protein [8] of 0.132 nM. This molecule also came in with a koff with Human PD-1 ECD protein [8] of 1.89e-05 s⁻¹. Moreover, the kon in the experiment with Human PD-1 ECD protein [8] is 143000 M⁻¹ s⁻¹; in the experiment with Human PD-1 ECD protein [10], 210000 M⁻¹ s⁻¹.

B3: TY101-01-09 (antibody, V domains shown)
VH: B1 VH
VL: B1 VL
notes: Compared with isotype control hIgG4; also called TY101 clone TY101-01-09
Turning to B3, the “Max OD450” value in experiment [4] came out at 0.71; in experiment [11], 3.01. Besides, the binding result in experiment [4] was “no binding (tested: 100 nM)”. In addition, the IC50 in the experiment with human PD-1 on cells [5] came to 1.76 nM; in the experiment with human PD-1 on cells [13] it was 1.15 nM. Further, the figures for the Inhibition rate with human PD-1 on cells [5] and with human PD-1 on cells [13] were 95.4% and 99.5%, respectively. Further, the EC50 in experiment [6] worked out at 1.13 nM; in experiment [11] it was 0.13 nM; with human PD-1 on cells [15] it was 0.78 nM. In addition, the “Max MFI” value in [6] is 21100; in the experiment with human PD-1 on cells [15] it was 23200. For the same molecule, the “Inhibition (%)” value was 94% with Biotin-hPD-1 [7]; 93% in the experiment with Biotin-hPD-1 [9]; 95% with Biotin-hPD-1 [12]; 94% with Biotin-hPD-1 [14]; 93% in the experiment with Biotin-hPD-1 [16].

B4: TY101-4G1 (antibody, V domains shown)
VH: B1 VH
VL: B1 VL
notes: also called TY101 clone TY101-4G1
For the molecule B4, the results for the “Max OD450” value in experiment [4] and in experiment [11] were 1.33 and 3.01, respectively. Moreover, the binding result in experiment [4] was “no binding (tested: 100 nM)”. The 50% inhibitory concentration (IC50) in the experiment with human PD-1 on cells [5] came to 2.33 nM; with human PD-1 on cells [13] it was 1.47 nM. For the same molecule, the results for the Inhibition rate in the experiment with human PD-1 on cells [5] and with human PD-1 on cells [13] were 94.7% and 99.5%, respectively. Moreover, the EC50 in [6] is 1.46 nM; in experiment [11] it was 0.15 nM; with human PD-1 on cells [15], 0.94 nM. For the same molecule, the “Max MFI” value in [6] is 20700; with human PD-1 on cells [15] it was 23700. The “Inhibition (%)” value with Biotin-hPD-1 [7] is 94%; with Biotin-hPD-1 [9], 94%; with Biotin-hPD-1 [12], 95%; with Biotin-hPD-1 [14], 94%; with Biotin-hPD-1 [16], 94%.

B5: Murine Ab2 (antibody, mouse IgG1, V domains shown)
VH: QVQLQQSGAELARPGASVKMSCKASGYTFTSYTMHWVKQRPGQGLEWIGYINPTTGYTNYNQKFKDKATLTADKSSSTAYMQLSSLTSEDSAVYYCARDDAYYSGYWGQGTTLTVSS
VL: DIQMTQSPASLSVSVGETVTITCRASENIYSNLAWYRQKQGKSPQLLVYAAKNLADGVPSRFSGSGSGTQYSLKINSLQSEDFGSYYCQHFWGTPWTFGGGTKLEIKR
notes: also called anti-hPD-1 mAb 2
For the molecule B5, the binding result with human PD-1 on cells [17] is listed as “binds”.

The values above are taken from US20210261665A1 (TAYU HUAXIA BIOTECH MEDICAL GROUP, published 2021).
